# Reference: US20160002338A1 (Hoffmann-La Roche, published 2016)
# Experiments:
# [1] = molecular target: human HER3 (full length, on cells) (human, UniProt P21860 20-1342); assay: cell-based or functional assay
# [2] = molecular target: T1, HER4 ECD peptide hairpin, overlapping 15-mer peptides (human); assay: CelluSpots peptide array
# T1 construct: also called β-hairpin of HER4
# T1 peptide: PQTFVYNPTTFQLEHNFNA
# [3] = molecular target: T2, human recombinant HER3 ECD (human, UniProt P21860 20-643); assay: SPR Biacore 3000, 37 C
# T2 construct: 68 kDa; also called human-Her3-ECD; full length Her3 ECD
# [4] = molecular target: T3, HER3 ECD-HRG complex (human, UniProt P21860 20-643); assay: SPR Biacore 3000, 37 C
# T3 construct: also called Heregulin/Her-3 ECD
# [5] = molecular target: T4, HER4 ECD-HRG complex (human, UniProt Q15303 26-651); assay: SPR Biacore 3000, 37 C
# T4 construct: HER4 ECD preincubated with a 5-fold molar excess of Heregulin; also called HER-4-ECD-RG
# T4 sequence 1: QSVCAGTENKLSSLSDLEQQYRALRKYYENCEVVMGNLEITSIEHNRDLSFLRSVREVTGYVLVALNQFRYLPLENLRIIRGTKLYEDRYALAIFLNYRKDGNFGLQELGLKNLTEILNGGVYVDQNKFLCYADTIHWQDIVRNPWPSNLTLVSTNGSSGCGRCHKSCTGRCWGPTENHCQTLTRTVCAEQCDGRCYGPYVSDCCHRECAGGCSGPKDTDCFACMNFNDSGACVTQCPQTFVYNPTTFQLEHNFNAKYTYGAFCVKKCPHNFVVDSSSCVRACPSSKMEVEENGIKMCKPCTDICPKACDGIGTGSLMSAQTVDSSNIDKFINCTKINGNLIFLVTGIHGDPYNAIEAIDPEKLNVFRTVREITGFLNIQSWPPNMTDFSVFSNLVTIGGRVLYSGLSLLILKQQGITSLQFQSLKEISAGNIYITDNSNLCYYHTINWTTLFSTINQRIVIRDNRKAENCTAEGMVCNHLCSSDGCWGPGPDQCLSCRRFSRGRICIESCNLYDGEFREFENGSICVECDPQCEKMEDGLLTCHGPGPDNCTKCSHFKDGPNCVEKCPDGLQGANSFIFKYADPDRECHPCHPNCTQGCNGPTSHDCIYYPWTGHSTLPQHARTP
# T4 sequence 2: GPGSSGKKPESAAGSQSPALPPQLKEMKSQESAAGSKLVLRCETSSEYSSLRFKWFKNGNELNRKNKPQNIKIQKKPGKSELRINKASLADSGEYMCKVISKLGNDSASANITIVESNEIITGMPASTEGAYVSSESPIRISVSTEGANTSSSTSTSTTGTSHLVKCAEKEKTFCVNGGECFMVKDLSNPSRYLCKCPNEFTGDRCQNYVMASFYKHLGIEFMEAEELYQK
binder,measurement,setting,value
M-05-74-Fab-Pseudomonas exotoxin conjugate (M-05-74-PE) (other) light: QIVLTQSPAIMSASPGERVTITCSASSSVSYMHWFQQKPGTSPKLLIYSTSNLASGVPARFSGSGSGTSYSLTISRMEAEDAATYYCQQRSSYPFTFGSGTKLEIKRTVAAPSVFIFPPSDEQLKSGTASVVCLLNNFYPREAKVQWKVDNALQSGNSQESVTEQDSKDSTYSLSSTLTLSKADYEKHKVYACEVTHQGLSSPVTKSFNRGEC heavy: QVQLQQSGAELAKPGASVKMSCKTSGYTLTDYWIHWVKQRPGQGLEWIGYINPYTGYTESNQKFKDKATLTADKSSNTAYIQLSSLTSEDSAVYYCARPYYYGDYWGQGTTLTVSSASTKGPSVFPLAPSSKSTSGGTAALGCLVKDYFPEPVTVSWNSGALTSGVHTFPAVLQSSGLYSLSSVVTVPSSSLGTQTYICNVNHKPSNTKVDKKVEPKSCGGGSLPETGGGRHRQPRGWEQLYPTGAEFLGDGGAVSFSTRGTQNWTVERLLQAHRQLEEGGYVFVGYHGTFLEAAQSIVFGGVRARSQDLDAIWAGFYIAGDPALAYGYAQDQEPDAAGRIRNGALLRVYVPRSSLPGFYATSLTLAAPEAAGEVERLIGHPLPLRLDAITGPEESGGRLETILGWPLAERTVVIPSAIPTDPRNVGGDLDPSSIPDSEAAISALPDYASQPGKPPREDL,"EC50 of cell killing of A549 cells, +HRG beta",[1],0.13 µg/mL
same,"EC50 of cell killing of A549 cells, -HRG beta",[1],1.93 µg/mL
"anti-HER3 antibody M-08-11 (antibody, V domains shown, also called M-011; <Her3> M-08-11) VH: QAYLQQSGAELMRPGASVRMSCQASGYTFTSYTIHWLKQTPRQGLEWIGAIYPRNGDFSYNQKFKDKASLTVDTSSSTAYMHLSSLTSEDSAVYFCARTINYGDWFAYWGQGTLVTVSA VL: DIQMIQSPASLFVSEGETVIITCRASENIYSNLAWYHQKKGKSPQVLVYAAIKLADGVPLRFSGSGSGTQFSLKINSLQSEDFGSYYCQHFWGPPYTFGSGTNLEIK",binding result,[2],no binding (tested: 1 µg/mL)
"humanized variant VH-A/VL-D of anti-HER3 antibody M-05-74 (antibody, V domains shown, also called humanized DIB-74) VH: QVQLVQSGAELKKPGASVKVSCRTSGYTLTDYWIHWVRQAPGQGLEWMGYINPYTGYTESNQKFKDRVAMTRDASINTAYMELTSLRSDDTAVYYCARPYYYGDYWGQGTLVTVSS VL: EIVLTQSPATLSLSPGERATLSCSASSSVSYMHWFQQKPGQPPRLLIYSTSNLASGIPARFSGSGSGTDFTLTISSLEPEDFAVYYCQQRSSYPFTFGGGTKVEIK",Molar Ratio MR,[3],0.7
same,Molar Ratio MR,[4],0.8
same,Molar Ratio MR,[5],0.8
